Data on one molecule can be found in patent US20260144818A1, “ARMED CHIMERIC RECEPTORS AND METHODS OF USE THEREOF” (Senti Biosciences, Inc., priority 2022, published 2026).

This experiment concerns tumor target cells that constitutively express a fluorescent reporter (mKate). Briefly: Serial killing screen of IL15 formats and combinations with IL21 or IL7. The format is cell-based. How it is done:
6 to 7 days after transduction, NK cells were collected, counted and seeded in a co-culture with tumor target cells that constitutively express a fluorescent reporter (mKate) at the appropriate effector to target (E:T) ratios. Tumor target cell growth (area) was quantified using an imaging-based system (Incucyte, Sartorius). After 48 to 72 hours of co-culture, new target cells were plated, and the NK cells were collected from the original plates and transferred to newly seeded targets for a 2nd or 3rd tumor re-challenge (serial killing). Target cell area was quantified and compared across different conditions. […] Similar serial target cell killing is shown at a different E:T ratio in FIG. 60E.
Additionally, various constructions of a chimeric protein containing IL15 tethered to the IL15 receptor (FIG. 61A) was tested.

B1: IL7 with crIL15: CAR-NK cells co-expressing IL7 (SEQ ID NO: 394) with crIL15 (protein, UniProt P13232 26-177, looked up)
Interleukin-7: DCDIEGKDGKQYESVLMVSIDQLLDSMKEIGSNCLNNEFNFFKRHICDANKEGMFLFRAARKLRQFLKMNSTGDFDLHLLKVSEGTTILLNCTGQVKGRKPAALGEAQPTKSLEENKSLKEQKKLNDLCFLKRLLQEIKTCWNKILMGTKEH
For the molecule B1, the “serial target cell killing” value is given as “no improvement in serial target cell killing”.
